The source of these data is patent US8034783B2, “Prodomain modulators of ADAM 10” (Biozyme, Inc., priority 2006, dated 2011).

A value given as a limit tells only on which side of the number the result lay.

In one assay the target is T1, TACE (human) Cat (Homo sapiens, UniProt P78536).
T1 construct: TACE catalytic domain, Marcos Milla, University of Pennsylvania; donated by Marcos Milla, University of Pennsylvania
Description: Inhibition assay with TACE catalytic domain, fluorescent substrate. The assay is classed as biochemical. The settings on record: room temperature; read-out: inhibition constant, TACE (human) Cat. How it is done: Inhibition assays with TACE and ADAM 10. Activity of TACE catalytic/disintegrin, TACE catalytic, or ADAM10 catalytic/disintegrin constructs was monitored at 3 minute intervals using the fluorescent substrate, Dabcyl-LAQAHomoPheRSC(Fluorescein)-NH2 (SEQ ID NO 17) with excitation 485 nm and emission 530 nm. The substrate was diluted from a 10 mM stock in DMSO to 10 μM in assay buffer containing 20 mM Tris, pH 8.0, and 0.0006% Brij-35. Reactions were run in a 96-well black-coated plate with either ADAM10 prodomain (10 nM-1.0 μM) alone or with enzyme. Concentrations of enzyme ranged from 0.5-2.0 nM for TACE and 5-15 nM for ADAM10. For assays with TACE and ADAM8 prodomain, the range of concentrations varied from 1-4.7 μM.
Calculation of inhibition constants. The amount of activity was calculated by subtracting the ADAM 10 prodomain control from the ADAM 10 prodomain with enzyme. All inhibition assays were performed at room temperature and the data fit to the following equation using Sigma Plot software:
[formula] where If is fractional inhibition, I is the inhibitor concentration and Ki is the inhibition constant.

Assay [1] concerns the target T2, ADAM 8 (mouse) catalytic domain (Mus musculus, UniProt Q05910).
T2 construct: The ADAM 8 catalytic domain was expressed and purified from E. coli as described (22); made in house; host or cells: E. coli
T2 sequence (Q05910 196-395 limits assumed): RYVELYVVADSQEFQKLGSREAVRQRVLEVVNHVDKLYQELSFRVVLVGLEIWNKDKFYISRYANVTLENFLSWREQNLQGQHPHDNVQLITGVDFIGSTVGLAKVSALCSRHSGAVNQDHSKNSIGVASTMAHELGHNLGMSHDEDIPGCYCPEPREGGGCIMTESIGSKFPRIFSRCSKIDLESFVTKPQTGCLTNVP
Description: Inhibition assay with ADAM 8 catalytic domain. The format is biochemical. The settings on record: fluorescamine assay; read-out: inhibition constant, ADAM 8 (mouse). How it is done: Inhibition assays with ADAM 8. The ADAM 8 catalytic domain was expressed and purified from E. coli as described (22). A substrate based on the L-selectin cleavage site, Dnp-INorIeuQKLDKSFSMIKE-NH2 (SEQ ID NO 20), was used to monitor enzyme activity with a fluorescamine assay. From a concentrated 50 mM solution in DMSO, the substrate was diluted 1:500 in 25 mM HEPES, pH 8.0, 0.0006% Brij-35. To 100 μl of diluted substrate was added either 5 μl of buffer (Tris, pH 8.0, 150 mM KCl) or 5 μl of ADAM10 prodomain (1-10 μM). Zero time points were taken by diluting 12.5 μl of the reaction mixture into 100 μl of fluorescamine buffer (50 mM HEPES, pH 8.0, 0.2 M NaCl, 0.01 M CaCl2, 0.01% Brij-35) in a 96-well black-coated plate. Before measuring fluorescence, 3 μl of a 1% solution of fluorescamine in DMSO was added to each well. The plate was allowed to incubate for 10 min in the dark before measuring fluorescence (excitation wavelength at 390 nm, emission wavelength at 485 nm). For assays with TACE and ADAM8 prodomains, a fluorescent substrate was used to monitor activity at concentrations of prodomains ranging from 1-4.7 μM.
Calculation of inhibition constants. The amount of activity was calculated by subtracting the ADAM 10 prodomain control from the ADAM 10 prodomain with enzyme. […]

Assay [2] deals with T3, mouse ADAM 10 catalytic domain (Mus musculus, UniProt O35598).
T3 construct: mouse ADAM 10 catalytic domain (unpublished observation)
T3 sequence (O35598 221-457 limits assumed): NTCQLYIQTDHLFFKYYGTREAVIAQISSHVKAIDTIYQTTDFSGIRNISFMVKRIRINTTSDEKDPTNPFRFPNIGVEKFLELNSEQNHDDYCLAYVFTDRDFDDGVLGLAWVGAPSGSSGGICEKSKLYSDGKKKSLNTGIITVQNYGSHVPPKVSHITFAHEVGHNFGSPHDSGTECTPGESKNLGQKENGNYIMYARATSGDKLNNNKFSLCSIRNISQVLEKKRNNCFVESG
Description: Inhibition of mouse ADAM 10 catalytic domain (unpublished observation). The format is biochemical. How it is done: Mechanism of ADAM 10 prodomain inhibition. For metalloproteinases that exist as zymogens, the presence of a cysteine in their prodomains is often necessary for inhibition of catalytic activity. […] For some of the ADAM family members, the cysteine is required for efficient inhibition of the enzyme. Therefore, a test was conducted to determine whether the cysteine in the putative cysteine switch of ADAM10 prodomain affected the potency of inhibition by preparing a C-terminal His tag construct with the only cysteine mutated to serine. […] The wild type prodomains (23-213), containing either the N- or C-terminal His tags, were both efficient inhibitors of ADAM10 (Table II), with inhibition constants of 75 and 48 nM respectively.

Assay [3] relates to CD23 shedding in Ramos cells. Description: CD23 release from Ramos cells, soluble CD23 ELISA. The settings on record: 150-600 nM, IL-4, 24 hr, FIG. 2A. The format is cell-based. How it is done: ADAM 10 prodomains were also tested in assays to determine if ADAM 10 protein functions as a CD23 sheddase. Cells (100,000 per well) were seeded in round-bottomed 96-well plates (Sarstedt, Newton, N.C.) in 0.2 ml of media supplemented with IL-4 with inhibitors (A10 23-215 150-600 nM, GM6001 10-50 μM, TAPI-2 10-50 μM, or TIMPs 250 nM) or vehicle controls (A10 23-215 buffer: 25 mM NaH2PO4 pH 7.0, 125 mM KCl, 75 mM NaCl 20% glycerol, PBS, or dimethyl sulfoxide). Cells were cultured for 24 hr. The conditioned medium was harvested by centrifugation (2000×g, 15 min). The conditioned medium was assayed by ELISA for soluble CD23 according to the manufacturers' instructions (BD Biosciences, Invitrogen).

T1 sequence (P78536 223-474 limits assumed): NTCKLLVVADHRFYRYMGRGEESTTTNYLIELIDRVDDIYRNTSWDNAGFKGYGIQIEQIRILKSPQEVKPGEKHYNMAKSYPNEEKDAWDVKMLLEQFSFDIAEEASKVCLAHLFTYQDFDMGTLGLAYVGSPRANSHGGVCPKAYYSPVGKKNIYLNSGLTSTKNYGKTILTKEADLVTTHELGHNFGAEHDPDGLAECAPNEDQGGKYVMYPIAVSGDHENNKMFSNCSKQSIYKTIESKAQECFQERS

B1: C173S ProADAM 10 23-213 (C-terminal His tag): mouse ADAM 10 prodomain 23-213 with cysteine 173 mutated to serine, C-terminal His tag (protein, UniProt O35598 23-213, looked up, variant C173S)
chain: NPLNKYIRHYEGLSYNVDSLHQKHQRAKRAVSHEDQFLLLDFHAHGRQFNLRMKRDTSLFSDEFKVETSNKVLDYDTSHIYTGHIYGEEGSFSHGSVIDGRFEGFIKTRGGTFYIEPAERYIKDRILPFHSVIYHEDDINYPHKYGPQGGSADHSVFERMRKYQMTGVEEGARAHPEKHAASSGPELLRKK
modifications: pro-form C-terminal His tag
notes: mouse ADAM 10 prodomain 23-213 with cysteine 173 mutated to serine, C-terminal His tag
For B1, the values for the Ki (with TACE (human) Cat; in assay [1]; in assay [2]) were over 3 µM, over 10 µM and 0.017 ± 0.01 µM, respectively. The “inhibition of CD23 shedding, Ramos cells” value in assay [3] is listed as “about 30%”.
